According to patent publication US12099068B2, “Biomarkers for graft-versus-host disease” (Incyte Corporation, priority 2018, dated 2024):

Test system: plasma proteins
Experiment: Plasma proteins modulated between baseline and day 28 in responders (CR, VGPR, PR; n = 19), Example 6 (Table 13)
Type: in vivo, human
Settings: plasma protein (OLINK NPX); responders (CR, VGPR, PR; n = 19); itacitinib 200 mg or 300 mg QD with corticosteroids; day 28 vs baseline
Procedure, shortened: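 Plasma at baseline/screening and day 28 profiled for >1000 proteins by OLINK proximity extension assay, reported as NPX (log2). Steroid-naive and steroid-refractory patients pooled. Paired and unpaired t tests, ANOVA and Pearson correlation applied; significance at P<0.05.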

Row | Molecule | Fold Change, Decreased Expression from Baseline to Day 28 | Fold Change, Increased Expression from Baseline to Day 28
1 | ERBB2IP (protein, UniProt Q96RT1 1-1412, looked up) Erbin: MTTKRSLFVRLVPCRCLRGEEETVTTLDYSHCSLEQVPKEIFTFEKTLEELYLDANQIEELPKQLFNCQSLHKLSLPDNDLTTLPASIANLINLRELDVSKNGIQEFPENIKNCKVLTIVEASVNPISKLPDGFSQLLNLTQLYLNDAFLEFLPANFGRLTKLQILELRENQLKMLPKTMNRLTQLERLDLGSNEFTEVPEVLEQLSGLKEFWMDANRLTFIPGFIGSLKQLTYLDVSKNNIEMVEEGISTCENLQDLLLSSNSLQQLPETIGSLKNITTLKIDENQLMYLPDSIGGLISVEELDCSFNEVEALPSSIGQLTNLRTFAADHNYLQQLPPEIGSWKNITVLFLHSNKLETLPEEMGDMQKLKVINLSDNRLKNLPFSFTKLQQLTAMWLSDNQSKPLIPLQKETDSETQKMVLTNYMFPQQPRTEDVMFISDNESFNPSLWEEQRKQRAQVAFECDEDKDEREAPPREGNLKRYPTPYPDELKNMVKTVQTIVHRLKDEETNEDSGRDLKPHEDQQDINKDVGVKTSESTTTVKSKVDEREKYMIGNSVQKISEPEAEISPGSLPVTANMKASENLKHIVNHDDVFEESEELSSDEEMKMAEMRPPLIETSINQPKVVALSNNKKDDTKETDSLSDEVTHNSNQNNSNCSSPSRMSDSVSLNTDSSQDTSLCSPVKQTHIDINSKIRQEDENFNSLLQNGDILNSSTEEKFKAHDKKDFNLPEYDLNVEERLVLIEKSVDSTATADDTHKLDHINMNLNKLITNDTFQPEIMERSKTQDIVLGTSFLSINSKEETEHLENGNKYPNLESVNKVNGHSEETSQSPNRTEPHDSDCSVDLGISKSTEDLSPQKSGPVGSVVKSHSITNMEIGGLKIYDILSDNGPQQPSTTVKITSAVDGKNIVRSKSATLLYDQPLQVFTGSSSSSDLISGTKAIFKFDSNHNPEEPNIIRGPTSGPQSAPQIYGPPQYNIQYSSSAAVKDTLWHSKQNPQIDHASFPPQLLPRSESTENQSYAKHSANMNFSNHNNVRANTAYHLHQRLGPARHGEMWAISPNDRLIPAVTRSTIQRQSSVSSTASVNLGDPGSTRRAQIPEGDYLSYREFHSAGRTPPMMPGSQRPLSARTYSIDGPNASRPQSARPSINEIPERTMSVSDFNYSRTSPSKRPNARVGSEHSLLDPPGKSKVPRDWREQVLRHIEAKKLEKKHPQTSSSGDPCQDGIFISGQQNYSSATLSHKDVPPDSLMKMPLSNGQMGQPLRPQANYSQIHHPPQASVARHPSREQLIDYLMLKVAHQPPYTQPHCSPRQGHELAKQEIRVRVEKDPELGFSISGGVGGRGNPFRPDDDGIFVTRVQPEGPASKLLQPGDKIIQANGYSFINIEHGQAVSLLKTFQNTVELIIVREVSS | −1.7337 | –
2 | GDF-2 (protein, UniProt Q9UK05 320-429, looked up) Growth/differentiation factor …: SAGAGSHCQKTSLRVNFEDIGWDSWIIAPKEYEAYECKGGCFFPLADDVTPTKHAIVQTLVHLKFPTKVGKACCVPTKLSPISVLYKDDMGVPTLKYHYEGMSVAECGCR | – | 1.3656
3 | MILR1 (protein, UniProt Q7Z6M3 20-343, looked up) Allergin-1: RKAVLDCEAMKTNEFPSPCLDSKTKVVMKGQNVSMFCSHKNKSLQITYSLFRRKTHLGTQDGKGEPAIFNLSITEAHESGPYKCKAQVTSCSKYSRDFSFTIVDPVTSPVLNIMVIQTETDRHITLHCLSVNGSLPINYTFFENHVAISPAISKYDREPAEFNLTKKNPGEEEEYRCEAKNRLPNYATYSHPVTMPSTGGDSCPFCLKLLLPGLLLLLVVIILILAFWVLPKYKTRKAMRNNVPRDRGDTAMEVGIYANILEKQAKEESVPEVGSRPCVSTAQDEAKHSQELQYATPVFQEVAPREQEACDSYKSGYVYSELNF | −1.3829 | –
4 | MIF (protein, UniProt P14174 2-115, looked up) Macrophage migration …: PMFIVNTNVPRASVPDGFLSELTQQLAQATGKPPQYIAVHVVPDQLMAFGGSSEPCALCSLHSIGKIGGAQNRSYSKLLCGLLAERLRISPDRVYINYYDMNAANVGWNNSTFA | −1.7486 | –
5 | KLK10 (protein, UniProt O43240 31-276, looked up) Kallikrein-10: AEAALLPQNDTRLDPEAYGSPCARGSQPWQVSLFNGLSFHCAGVLVDQSWVLTAAHCGNKPLWARVGDDHLLLLQGEQLRRTTRSVVHPKYHQGSGPILPRRTDEHDLMLLKLARPVVLGPRVRALQLPYRCAQPGDQCQVAGWGTTAARRVKYNKGLTCSSITILSPKECEVFYPGVVTNNMICAGLDRGQDPCQSDSGGPLVCDETLQGILSWGVYPCGSAQHPAVYTQICKYMSWINKVIRSN | – | 1.2102
6 | SNAP23 (protein, UniProt O00161 1-211, looked up) Synaptosomal-associated …: MDNLSSEEIQQRAHQITDESLESTRRILGLAIESQDAGIKTITMLDEQKEQLNRIEEGLDQINKDMRETEKTLTELNKCCGLCVCPCNRTKNFESGKAYKTTWGDGGENSPCNVVSKQPGPVTNGQLQQPTTGAASGGYIKRITNDAREDEMEENLTQVGSILGNLKDMALNIGNEIDAQNPQIKRITDKADTNRDRIDIANARAKKLIDS | −1.5751 | –
7 | FAM3C (protein, UniProt Q92520 25-227, looked up) Protein FAM3C: QVFEIKMDASLGNLFARSALDTAARSTKPPRYKCGISKACPEKHFAFKMASGAANVVGPKICLEDNVLMSGVKNNVGRGINVALANGKTGEVLDTKYFDMWGGDVAPFIEFLKAIQDGTIVLMGTYDDGATKLNDEARRLIADLGSTSITNLGFRDNWVFCGGKGIKTKSPFEQHIKNNKDTNKYEGWPEVVEMEGCIPQKQD | – | 1.3109
8 | NUB1 (protein, UniProt Q9Y5A7 1-615, looked up) NEDD8 ultimate buster 1: MAQKKYLQAKLTQFLREDRIQLWKPPYTDENKKVGLALKDLAKQYSDRLECCENEVEKVIEEIRCKAIERGTGNDNYRTTGIATIEVFLPPRLKKDRKNLLETRLHITGRELRSKIAETFGLQENYIKIVINKKQLQLGKTLEEQGVAHNVKAMVLELKQSEEDARKNFQLEEEEQNEAKLKEKQIQRTKRGLEILAKRAAETVVDPEMTPYLDIANQTGRSIRIPPSERKALMLAMGYHEKGRAFLKRKEYGIALPCLLDADKYFCECCRELLDTVDNYAVLQLDIVWCYFRLEQLECLDDAEKKLNLAQKCFKNCYGENHQRLVHIKGNCGKEKVLFLRLYLLQGIRNYHSGNDVEAYEYLNKARQLFKELYIDPSKVDNLLQLGFTAQEARLGLRACDGNVDHAATHITNRREELAQIRKEEKEKKRRRLENIRFLKGMGYSTHAAQQVLHAASGNLDEALKILLSNPQMWWLNDSNPETDNRQESPSQENIDRLVYMGFDALVAEAALRVFRGNVQLAAQTLAHNGGSLPPELPLSPEDSLSPPATSPSDSAGTSSASTDEDMETEAVNEILEDIPEHEEDYLDSTLEDEEIIIAEYLSYVENRKSATKKN | −1.4966 | –
9 | TIGAR (protein, UniProt Q9NQ88 1-270, looked up) Fructose-2,6-bisphosphatase …: MARFALTVVRHGETRFNKEKIIQGQGVDEPLSETGFKQAAAAGIFLNNVKFTHAFSSDLMRTKQTMHGILERSKFCKDMTVKYDSRLRERKYGVVEGKALSELRAMAKAAREECPVFTPPGGETLDQVKMRGIDFFEFLCQLILKEADQKEQFSQGSPSNCLETSLAEIFPLGKNHSSKVNSDSGIPGLAASVLVVSHGAYMRSLFDYFLTDLKCSLPATLSRSELMSVTPNTGMSLFIINFEEGREVKPTVQCICMNLQDHLNGLTETR | −1.3733 | –
10 | STAMPB (protein, UniProt O95630 1-424, looked up) STAM-binding protein: MSDHGDVSLPPEDRVRALSQLGSAVEVNEDIPPRRYFRSGVEIIRMASIYSEEGNIEHAFILYNKYITLFIEKLPKHRDYKSAVIPEKKDTVKKLKEIAFPKAEELKAELLKRYTKEYTEYNEEKKKEAEELARNMAIQQELEKEKQRVAQQKQQQLEQEQFHAFEEMIRNQELEKERLKIVQEFGKVDPGLGGPLVPDLEKPSLDVFPTLTVSSIQPSDCHTTVRPAKPPVVDRSLKPGALSNSESIPTIDGLRHVVVPGRLCPQFLQLASANTARGVETCGILCGKLMRNEFTITHVLIPKQSAGSDYCNTENEEELFLIQDQQGLITLGWIHTHPTQTAFLSSVDLHTHCSYQMMLPESVAIVCSPKFQETGFFKLTDHGLEEISSCRQKGFHPHSKDPPLFCSCSHVTVVDRAVTITDLR | −1.3721 | –
11 | AGR2 (protein, UniProt O95994 21-175, looked up) Anterior gradient protein 2 …: RDTTVKPGAKKDTKDSRPKLPQTLSRGWGDQLIWTQTYEEALYKSKTSNKPLMIIHHLDECPHSQALKKVFAENKEIQKLAEQFVLLNLVYETTDKHLSPDGQYVPRIMFVDPSLTVRADITGRYSNRLYAYEPADTALLLDNMKKALKLLKTEL | – | 1.4472
12 | LAT2 (protein, UniProt Q9GZY6 1-243, looked up) Linker for activation of …: MSSGTELLWPGAALLVLLGVAASLCVRCSRPGAKRSEKIYQQRSLREDQQSFTGSRTYSLVGQAWPGPLADMAPTRKDKLLQFYPSLEDPASSRYQNFSKGSRHGSEEAYIDPIAMEYYNWGRFSKPPEDDDANSYENVLICKQKTTETGAQQEGIGGLCRGDLSLSLALKTGPTSGLCPSASPEEDEESEDYQNSASIHQWRESRKVMGQLQREASPGPVGSPDEEDGEPDYVNGEVAATEA | −1.7755 | –
